T1: EsCas13d, nuclease-dead (Eubacterium siraeum, UniProt B0MS50, R295A;H300A;R849A;H854A)
T1 sequence: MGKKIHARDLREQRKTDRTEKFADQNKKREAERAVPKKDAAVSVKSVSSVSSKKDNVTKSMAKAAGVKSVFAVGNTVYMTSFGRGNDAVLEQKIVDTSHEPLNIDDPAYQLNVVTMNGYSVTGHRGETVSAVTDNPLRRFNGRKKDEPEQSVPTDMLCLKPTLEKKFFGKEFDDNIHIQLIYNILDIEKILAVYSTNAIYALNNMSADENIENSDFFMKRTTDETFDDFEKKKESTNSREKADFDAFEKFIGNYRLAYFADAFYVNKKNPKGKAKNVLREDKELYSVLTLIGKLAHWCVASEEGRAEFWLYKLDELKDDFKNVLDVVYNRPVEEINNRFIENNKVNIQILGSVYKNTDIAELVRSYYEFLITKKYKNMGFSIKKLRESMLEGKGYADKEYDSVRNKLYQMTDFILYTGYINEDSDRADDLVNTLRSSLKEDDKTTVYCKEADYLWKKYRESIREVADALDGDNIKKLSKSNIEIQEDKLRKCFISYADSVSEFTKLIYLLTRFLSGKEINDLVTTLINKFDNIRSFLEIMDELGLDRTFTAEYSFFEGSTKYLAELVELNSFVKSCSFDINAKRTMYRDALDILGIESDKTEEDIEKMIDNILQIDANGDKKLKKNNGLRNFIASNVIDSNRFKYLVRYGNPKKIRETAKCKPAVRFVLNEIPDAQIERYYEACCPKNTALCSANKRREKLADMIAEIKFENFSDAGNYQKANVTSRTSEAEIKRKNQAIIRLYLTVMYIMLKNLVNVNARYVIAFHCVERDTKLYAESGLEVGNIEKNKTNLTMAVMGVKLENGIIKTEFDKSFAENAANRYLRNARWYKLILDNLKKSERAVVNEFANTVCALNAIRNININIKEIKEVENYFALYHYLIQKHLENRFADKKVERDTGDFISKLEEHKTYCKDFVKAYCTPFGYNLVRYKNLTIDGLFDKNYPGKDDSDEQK


Target: T1, EsCas13d, nuclease-dead
Experiment: crRNA (strand 1, pre-loaded); Mg2+; 40 mM Tris-HCl pH 7.5, 150 mM NaCl, 6 mM MgCl2, 1 mM DTT, 0.1% Tween-20, 0.2 mg/ml BSA; 25 C; 10 min per concentration, then washed
Details: tags: His6-TwinStrep-SUMO cleaved; N-terminal SNAP kept (SNAP-Surface 488); label: 3' end held by stalled T7 RNA polymerase

| Binder | Kd [nM] |
| --- | --- |
| target 1 insC 3' of 15,insU 3' of 1 (mixed) RNA 1: CACCCGUGCAAAAAUGCAGGGGUCUAAAACUGAGCGGAUAACCUCUCUAUGG RNA 2: GGGAAUGGAUCCACAUCUACGAAUUCGUACCAUAGAGCAGGUUAUCCGCUCAUCCGAGAUCGGAAGAGCACACGU | 19.1 ± 1.8 |
| target 1 insC 3' of 17,insA 3' of 12 (mixed) RNA 1: CACCCGUGCAAAAAUGCAGGGGUCUAAAACUGAGCGGAUAACCUCUCUAUGG RNA 2: GGGAAUGGAUCCACAUCUACGAAUUCGUACCAUAGCAGAGGAUUAUCCGCUCACCGAGAUCGGAAGAGCACACGU | 32.9 ± 2.7 |
| target 1 insA 3' of 13,insA 3' of 12 (mixed) RNA 1: CACCCGUGCAAAAAUGCAGGGGUCUAAAACUGAGCGGAUAACCUCUCUAUGG RNA 2: GGGAAUGGAUCCACAUCUACGAAUUCGUACCAUAGAGAGAGAUUAUCCGCUCACCGAGAUCGGAAGAGCACACGU | 11.8 ± 0.8 |
| target 1 C7G,A18U (mixed) RNA 1: CACCCGUGCAAAAAUGCAGGGGUCUAAAACUGAGCGGAUAACCUCUCUAUGG RNA 2: GGGAAUGGAUCCACAUCUACGAAUUCGUACCAUUGAGAGGUUAUGCGCUCACCGAGAUCGGAAGAGCACACGU | 32 ± 6 |
| target 1 del1,del3 (mixed) RNA 1: CACCCGUGCAAAAAUGCAGGGGUCUAAAACUGAGCGGAUAACCUCUCUAUGG RNA 2: GGGAAUGGAUCCACAUCUACGAAUUCGUACCAUAGAGAGGUUAUCCGCCCCGAGAUCGGAAGAGCACACGU | 45 ± 13 |
| target 1 insA 3' of 22,insA 3' of 21 (mixed) RNA 1: CACCCGUGCAAAAAUGCAGGGGUCUAAAACUGAGCGGAUAACCUCUCUAUGG RNA 2: GGGAAUGGAUCCACAUCUACGAAUUCGUACACAAUAGAGAGGUUAUCCGCUCACCGAGAUCGGAAGAGCACACGU | 16.2 ± 0.9 |
| target 1 insG 3' of 11,insA 3' of 3 (mixed) RNA 1: CACCCGUGCAAAAAUGCAGGGGUCUAAAACUGAGCGGAUAACCUCUCUAUGG RNA 2: GGGAAUGGAUCCACAUCUACGAAUUCGUACCAUAGAGAGGUGUAUCCGCUACACCGAGAUCGGAAGAGCACACGU | 17.5 ± 1.2 |
| target 1 U10G,U11A (mixed) RNA 1: CACCCGUGCAAAAAUGCAGGGGUCUAAAACUGAGCGGAUAACCUCUCUAUGG RNA 2: GGGAAUGGAUCCACAUCUACGAAUUCGUACCAUAGAGAGGAGAUCCGCUCACCGAGAUCGGAAGAGCACACGU | 12.9 ± 1 |
| target 1 insC 3' of 8,insG 3' of 1 (mixed) RNA 1: CACCCGUGCAAAAAUGCAGGGGUCUAAAACUGAGCGGAUAACCUCUCUAUGG RNA 2: GGGAAUGGAUCCACAUCUACGAAUUCGUACCAUAGAGAGGUUAUCCCGCUCAGCCGAGAUCGGAAGAGCACACGU | 14.3 ± 1 |
| target 1 insU 3' of 17,insA 3' of 17 (mixed) RNA 1: CACCCGUGCAAAAAUGCAGGGGUCUAAAACUGAGCGGAUAACCUCUCUAUGG RNA 2: GGGAAUGGAUCCACAUCUACGAAUUCGUACCAUAGUAAGAGGUUAUCCGCUCACCGAGAUCGGAAGAGCACACGU | 30.5 ± 2.2 |
| target 1 U10C,U11C (mixed) RNA 1: CACCCGUGCAAAAAUGCAGGGGUCUAAAACUGAGCGGAUAACCUCUCUAUGG RNA 2: GGGAAUGGAUCCACAUCUACGAAUUCGUACCAUAGAGAGGCCAUCCGCUCACCGAGAUCGGAAGAGCACACGU | 24.7 ± 2.9 |
| target 1 A1G,C6A (mixed) RNA 1: CACCCGUGCAAAAAUGCAGGGGUCUAAAACUGAGCGGAUAACCUCUCUAUGG RNA 2: GGGAAUGGAUCCACAUCUACGAAUUCGUACCAUAGAGAGGUUAUCAGCUCGCCGAGAUCGGAAGAGCACACGU | 7 ± 0.35 |
| target 1 C2A,U19G (mixed) RNA 1: CACCCGUGCAAAAAUGCAGGGGUCUAAAACUGAGCGGAUAACCUCUCUAUGG RNA 2: GGGAAUGGAUCCACAUCUACGAAUUCGUACCAGAGAGAGGUUAUCCGCUAACCGAGAUCGGAAGAGCACACGU | 48 ± 5 |
| target 1 U10A,C21U (mixed) RNA 1: CACCCGUGCAAAAAUGCAGGGGUCUAAAACUGAGCGGAUAACCUCUCUAUGG RNA 2: GGGAAUGGAUCCACAUCUACGAAUUCGUACUAUAGAGAGGUAAUCCGCUCACCGAGAUCGGAAGAGCACACGU | 8.1 ± 0.5 |
| target 1 U8C,U11A (mixed) RNA 1: CACCCGUGCAAAAAUGCAGGGGUCUAAAACUGAGCGGAUAACCUCUCUAUGG RNA 2: GGGAAUGGAUCCACAUCUACGAAUUCGUACCAUAGAGAGGAUACCCGCUCACCGAGAUCGGAAGAGCACACGU | 32.5 ± 3.2 |
| target 1 C7U,G13U (mixed) RNA 1: CACCCGUGCAAAAAUGCAGGGGUCUAAAACUGAGCGGAUAACCUCUCUAUGG RNA 2: GGGAAUGGAUCCACAUCUACGAAUUCGUACCAUAGAGAUGUUAUUCGCUCACCGAGAUCGGAAGAGCACACGU | 39 ± 6 |
| target 1 insC 3' of 13,insC 3' of 11 (mixed) RNA 1: CACCCGUGCAAAAAUGCAGGGGUCUAAAACUGAGCGGAUAACCUCUCUAUGG RNA 2: GGGAAUGGAUCCACAUCUACGAAUUCGUACCAUAGAGAGCGUCUAUCCGCUCACCGAGAUCGGAAGAGCACACGU | 14.2 ± 1 |
| target 1 insC 3' of 10,insA 3' of 3 (mixed) RNA 1: CACCCGUGCAAAAAUGCAGGGGUCUAAAACUGAGCGGAUAACCUCUCUAUGG RNA 2: GGGAAUGGAUCCACAUCUACGAAUUCGUACCAUAGAGAGGUUCAUCCGCUACACCGAGAUCGGAAGAGCACACGU | 12.9 ± 0.6 |
| target 1 insC 3' of 20,insC 3' of 13 (mixed) RNA 1: CACCCGUGCAAAAAUGCAGGGGUCUAAAACUGAGCGGAUAACCUCUCUAUGG RNA 2: GGGAAUGGAUCCACAUCUACGAAUUCGUACCACUAGAGAGCGUUAUCCGCUCACCGAGAUCGGAAGAGCACACGU | 7.2 ± 0.6 |
| target 1 insC 3' of 17,insU 3' of 13 (mixed) RNA 1: CACCCGUGCAAAAAUGCAGGGGUCUAAAACUGAGCGGAUAACCUCUCUAUGG RNA 2: GGGAAUGGAUCCACAUCUACGAAUUCGUACCAUAGCAGAGUGUUAUCCGCUCACCGAGAUCGGAAGAGCACACGU | 80 ± 40 |
| target 1 A9C,A18U (mixed) RNA 1: CACCCGUGCAAAAAUGCAGGGGUCUAAAACUGAGCGGAUAACCUCUCUAUGG RNA 2: GGGAAUGGAUCCACAUCUACGAAUUCGUACCAUUGAGAGGUUCUCCGCUCACCGAGAUCGGAAGAGCACACGU | 63 ± 10 |
| target 1 del3,del4 (mixed) RNA 1: CACCCGUGCAAAAAUGCAGGGGUCUAAAACUGAGCGGAUAACCUCUCUAUGG RNA 2: GGGAAUGGAUCCACAUCUACGAAUUCGUACCAUAGAGAGGUUAUCCGCACCGAGAUCGGAAGAGCACACGU | 14.4 ± 1.2 |
| target 1 C4U,G12U (mixed) RNA 1: CACCCGUGCAAAAAUGCAGGGGUCUAAAACUGAGCGGAUAACCUCUCUAUGG RNA 2: GGGAAUGGAUCCACAUCUACGAAUUCGUACCAUAGAGAGUUUAUCCGUUCACCGAGAUCGGAAGAGCACACGU | 36 ± 8 |
| target 1 insA 3' of 15,insA 3' of 4 (mixed) RNA 1: CACCCGUGCAAAAAUGCAGGGGUCUAAAACUGAGCGGAUAACCUCUCUAUGG RNA 2: GGGAAUGGAUCCACAUCUACGAAUUCGUACCAUAGAGAAGGUUAUCCGCAUCACCGAGAUCGGAAGAGCACACGU | 7.7 ± 0.9 |

Source: PMC10786891, “Massively parallel profiling of RNA-targeting CRISPR-Cas13d”
